Experimental data taken from the DeepSol protein solubility set.

Test: soluble on expression in E. coli; label from the status in PepcDB or PDB records

Row | Sequence | soluble on expression in E. coli
1 | KRRFELRGIVNNISVYDDFAHHPTAIAKTLAGVRAKLSQQESEQEQVGRIFAVLEPRSNTMRSGVHKESLPKSLIDADQVFIYQGEQVTWSVSDLIKQCKPACQVEDNVERLVESIAQQAQAGDIIVVMSNGGFADIHNKLLNRLANIPVPLEDA | not soluble
2 | MSKKPTSAYVHIPFCTQICYYCDFSKVFIKNQPVDAYLEALIKEFNDYYQIKDLQTLYIGGGTPTAISGEQLDYLLTNLSKNLNLNMLEEFTIEANPGDLTPDKVAVLKQSAVNRVSLGVQTFNNKHLKQIGRGHNEAQIYESIDSLKSAGFDNISIDLIYALPNQTITDVKENVAKALALDIPHLSLYNLILEHHTVFMNKMRRGKLNLPAEDLEAEMFDYIISEMEDHGFEHYEISNFTKPGFESRHNLMYWNNAEYFGCGAGASGYVDGIRYRNRGPIQHYLKAIKEKRQARFQEERLSQSEKMEEELFLGLRKKSGISIQRFEDKFGLPLMEVYGQAIDDLEKDGLILVEKDCIRMSKKGLFLGDTVAEKFILEQK | not soluble
3 | MGSDKIHHHHHHMKLDPTSPSLNIMLANPRGFCAGVDRAISIVERALELFSPPIYVRHEVVHNRYVVQNLKDRGAVFVEELDQVPDNNIVIFSAHGVSQAVRQEAKARGLRVFDATCPLVTKVHLQVTRASRKGIECILIGHEGHPEVEGTMGQYDNPNGGVYLIESPADVDALEVRDPNNLCFVTQTTLSVDDTLDIIAALQKRFPSIEGPRKDDICYATQNRQDAVRNLSADVDLLIVVGSKNSSNSNRLRELALKTGTQSYLVDTADDVESSWFDNVSRVAVTAGASAPEVLVQQVVQAIAKLAPSVVTEVEGRKEDTVFAVPAELR | not soluble
4 | MGSDKIHHHHHHVAKVPQRKLLLSEIQLGMRVKLPLSWTNHPFLFNRVDISSAAQIEMIRGLGVPYVLLLSELNPASEVVEEDENVEDEIAAEPERDLKADTRKAIRLSQKRFLENVNNCRNVFGKIVSDPEGAYRLSAALVEDLLSHLQEVEKPFLTLVGMDDSDVSVTQHGVSVAVLAMMMGHALDLSPRELRDIALGSLLHDIGKLKVPDVIRRKRGALTPHEANYLQMHPNFAYDMLNRSGLFPKEVLHIVLHHHEFIDGSGFPDGLTDHKIPITTQIVSLANDYDQQLSGQQISSPQVALGYLFKNRATKHAESLIAILVKILGIYPPGTIVRLSDDSVAKVMMTTKEVSQPQVWACKEDGSEASLRFLSDEGVTVQKAIKAEELSEGAIRTLQVDKGVSFYFSSLQT | not soluble
5 | MDYRVIKENDVFLLTDQDGNIPEHHPYGLGLYTKDTRFLSKWSLRINGEEPVLLASDAAQNYVATILLTNPHIERDGELILWRESVEIERKRFIYAGVLYETIKLKNYHPKPVQLEISVHMDADFADMFIVRGFQTGEVGKRTGQTIGKRSLTFHYEGADGVERATKVSWDREEKTVKEHGEIVFDFALDRAEEQTVTLMVEPITGKTGRVEVIPPEQALQRLQESYQRWEGETANVITDERQFERLVRRGIGDLRVLLTDLGCGPFPVAGLPWFGVPFGRDSLIAALQLLPFNHEIAKGTLLTMARYQGTKVDPWRDEQPGKIMHEIRFGELANTNQIPFTPYYGTIDATPLFLVLLVEYVKWTGNFDLVRQLRSNIDAALHWIDRYGDRDGDLFVEYFQESSKGIANQGWKDSGDSIVHENGEYARAPIALVEVQGYVYHAKMGLADIFEQLQEVEKAEALRTQAEALKKRFEEQFWMEDRKFYALALDENKAPVRTITSNPGHVLFSGMLEGRRADAVIDTLLSEKMFSGYGIRTMGEGEAGYNPMSYHNGSIWPHDNSLILLGLSKLGRRREAKTVIEGLMEASMHFEYDRLPELFCGYSRSEGKPVRYPVACSPQAWAAGTPLVFVQALLGLFPNALEKNIYLSPTLLDSMNMLRVENILIGGGRLSLTVTREQDNFHVQIDENTTGWDIVLR | not soluble
6 | MGSDKIHHHHHHMRTPVPRVAAIHDLSGFGRTSLTVAMPVLSSMGVQVCPLPTAVLSTHTSGFENFSFVDLTEQMHSILDHWQSLNLKFDAVYSGFLGSPEQVDIVARCIDMFRTPDGLAVVDPVMGDNGEMEPTMTLEMVHRMRWLVTKADIITPNFTEAAFLLDEKYTTEATVSTVKDWLRRLTAMGPSIAIITSVPVHGDERRSAVMAYNRRHDRFWKVDCSYIPAHYPGTGDTFASVVTGALLQGDSLPIAMDRAVQFVTMGIRATFGHNLPSRDGILLERVLDTLRAPVTSSSFELLDNDGEQCACR | not soluble
7 | MGSDKIHHHHHHMILDVDYVISAANITMQFGAKPLFENISVKFGNGNRYGLIGANGCGKSTFMRILSGEQEPSAGNVSLEPNIRIGKLRQDQFAYEDYSVVDAVIMGHEELWAVKEERDRIYSSGEMSEEDGMRVADLETEFAEMDGYTAESRAGELLLGLGIPVEQHFGLMSALAPGVKIRVLLAQVLFSEPDIMLLDEPTNNLDINTIRWLEGVLAEKQSTMIIISHDRHFLNTVCTHMADIDYGELRVYPGNYDEYMFAATQAREQLMSDNAKKKEKIAELQSFVSRFSANASKAKQATSRQKQMEKIQLDEVKASSRVNPYIRFTQEKKLYRLALETENVRKSFEDEAVLKGLSTSIEVGEKVAIIGANGIGKTTLLKCLMGEYTPDSGSIKWSENAAIGYYAQDHAHWFKQDMTVYEWMYQWKKPGDDEQAIRGVLGRMLFSSDDIQKPVSILSGGEKGRMIFGKLILQRPNILVMDEPTNHLDMESIESLNLALEQFEGTLLFVSHDREFVSTLATRIIEITDKGLRDFAGSYDEYLAQLAAA | not soluble
8 | SMVSPEEAVKWGESFDKLLSHRDGLEAFTRFLKTEFSEENIEFWIACEDFKKSKGPQQIHLKAKAIYEKFIQTDAPKEVNLDFHTKEVITNSITQPTLHSFDAAQSRVYQLMEQDSYTRFLKSDIYLDLMEGRPQRPTNLRRRSRSFTCNE | soluble
9 | MLTPPSLSLYIHIPWCVQKCPYCDFNSHAQKGEIPEQEYLDALLQDLDRDIERYQLKGDPRLLHSIFIGGGTPSLISAEGIARLLQGVAERIAFKPEIEITMEANPGTIEAQRFAGYRTAGVTRISIGVQSFEPEKLARLGRIHGQQEAVRAAQLAHQIGLNSFNLDLMHGLPDQTPEQALADLDQAIALNPPHLSWYQLTIEPNTLFYSKPPKLPDEDALWDIFELGHQKLSDAGYVQYEISGYSKPGYQCQHNLNYWRFGDYLGIGCGAHGKLSFADGRIVRTTKTKHPRGYLAALNNLAKAYLDSEQLVADQDKPFEFFMNRFRLIEPCPKADFTATTGLTIDVIRPTLDWALSEGYLSEDDQHWQITEKGKLFLNDLLEAFMADEEELEHHHHHH | not soluble
10 | QCTNGFDLDRQSGQCLDIDECRTIPEACRGDMMCVNQNGGYLCIPRTNPVYRGPYSNPYSTPYSGPYPAAAPPLSAPNYPTISRPLICRFGYQMDESNQCVDVDECATDSHQCNPTQICINTEGGYTCSCTDGYWLLEGQCLDIDECRYGYCQQLCANVPGSYSCTCNPGFTLNEDGRSCQDVNECATENPCVQTCVNTYGSFICRCDPGYELEEDGVHCSDMDECSFSEFLCQHECVNQPGTYFCSCPPGYILLDDNRSCQDINECEHRNHTCNLQQTCYNLQGGFKCIDPIRCEEPYLRISDNRCMCPAENPGCRDQPFTILYRDMDVVSGRSVPADIFQMQATTRYPGAYYIFQIKSGNEGREFYMRQTGPISATLVMTRPIKGPREIQLDLEMITVNTVINFRGSSVIRLRIYVSQYPF | soluble
11 | MKRDQLKSLLLGAILLAGITLPAKAQIGEQRHNFAIGINGGANYSTVSFQPTIKQNGLLGITGGVTARYISEKYFAMICGAQLELNFSQRGWDEKFDPEQGFSSEDSYVRTMNYLEIPFLAHLAFGKDKGVQFFVNLGPQIGLLLNESEKRKGTWETANRAPNEQYGKWVENKFDYGIVGGGGIEVRTKAGNFLLEGRYYFGLADFYNSTKKDYFSRSANSTITAKITYLFDIKK | not soluble
12 | SLSGGKYVDSEGHLYTVPIREQGNIYKPNNKAMADELSEKQVYDAHTKEIDLVNRDPKHLNDDVVKIDFEDVIAEPEGTHSFDGIWKASFSTFTVTKEG | soluble
